Experimental data as given in the nanobody polyreactivity screen of Harvey et al. (2022).

assay: yeast display, Sf9 membrane polyspecificity reagent, FACS + sequencing; frameworks hold sequencing errors
Outline: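 Sorting gates, low and high (top ~1%), were placed on anti-HA fluorescence to track expression and on streptavidin fluorescence to track reagent binding. A clone's polyreactivity label is taken from the gate it came out of. The reagent was 10% biotinylated, detergent-solubilized Sf9 membrane, applied for 1 hour at 4 °C to galactose-induced yeast display cells.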

Row | Sequence | polyreactivity (PSR sort gate)
1 | QVQLVESGGGLVQAGGSLRLSCAASGSIFFYYAMGWYRQAPGKERELVAAITSSDGDTYYADSVKGRFTISRDNAKNTVYLQMYSLKPEDTAVYYCAAESGPSPPITTSSNEYWGQGTLVTVSS | low polyreactivity
2 | QVQLVESGGGLVQAGGSLRLSCAASGSIFFYYTMGWYRQAPGKEREFVAAISGSGGSTYYADSVKGRFTISRDNAKNTVYLQMNSLKPEDTAVYYCAAGLRLDLGAMYYWGQVTQVTVSS | low polyreactivity
3 | QVQLVESGGGLVQAGGSLRLSCAASGSIFGAYAMGWYRQAPGKERELVAAISGSGTSTYYADSVKGRFTISRDNAKNTVYLQMNSLKPEDTAVYYCATAKLTWRSQGLDYWGQGTQVTVSS | low polyreactivity
4 | QVQLVESGGGLVQAGGSLRLSCAASGSIFGAYAMGWYRQAPGKERELVAVIRWGGGSTYADSVKGRFTISRDNAKNTVYLQMNSLKPEDTAVYYCNRDKSWADLYSHAYDYWGQGTQVTVSS | low polyreactivity
5 | QVQLVESGGGLVQAGGSLRLSCAASGSIFGDNAMGWYIQAPGKERELVAAITSSGVRTYYADSVKGRFTISRDNAKNTVYLQMNSLKPEDTAVYYCNADRFRRIRWYAITRSDYWGQGTQVTVSS | high polyreactivity
6 | QVQLVESGGGLVQAGGSLRLSCAASGSIFGDYVMGWYRQAPGKERELVAAITSATSTYYADSVKGRFTISRDNAKNTVYLQINSLKPEDTAVYYCNADATYPLWPNIWYDYDYWGQGTQVTVSS | low polyreactivity
7 | QVQLVESGGGLVQAGGSLRLSCAASGSIFGEYAMGWYRQAPGKERELVAAITFSTGSTYYADSVKGRFTISRDNAKNTVYLQMNSLKPEDTAVYYCAAESYTYYWYDYEYWGQGTQVTVSS | high polyreactivity
8 | QVQLVESGGGLVQAGGSLRLSCAASGSIFGFNAMGWYRQAPGIERELVAAINNGGSTNYADSVKGRFTISRENANNTVYLQMNSLKPEDTADYYCAARLNYIRRGYWGQGTQVTVSS | high polyreactivity
9 | QVQLVESGGGLVQAGGSLRLSCAASGSIFGFYAMGWYRQAPGKERELVASISSSGDSTYYADSVKGRFTISRDNAKNTVYLQMNSLNPEDTAVYYCAAVVYDIYGYEFDYWGQGTQVTVSS | low polyreactivity
10 | QVQLVESGGGLVQAGGSLRLSCAASGSIFGGNAMGWYRQAPGKERELVAAITSTVSTNYADSVKGRFTISRDNAKNTVYLQMNSLKPEVTAVYYCATDSSNVEGDYWGQGTQVTVSS | low polyreactivity
11 | QVQLVESGGGLVQAGGSLRLSCAASGSIFGGYAMGWYRQAPGKERELVAAISWSSSSTYYADSVKGRFTISRDNAKNTVYLQMNSLKPEDTAVYYCNAKPFYDYTEYDYWGQGTQVTVSS | low polyreactivity
12 | QVQLVESGGGLVQAGGSLRLSCAASGSIFGGYAMGWYRQAPGKERELVAAITSSGGRTYYADSVKGRFTISRDNAKNTVYLQMNSLKPEDTAVYYCAASPNYYYYYPMYYWGQGTQVTVSS | high polyreactivity
13 | QVQLVESGGGLVQAGGSLRLSCAASGSIFGGYAMGWYRQAPGKERELVATISYSGDSTYYADSVKGRFTISRDHAKNTVYLQMNSLKPEDTAVDYCATESNGSPYKGDYWGQGTQVTVSS | low polyreactivity
14 | QVQLVESGGGLVQAGGSLRLSCAASGSIFGGYTMGWYRQAPGKERELVAAISRRGGNTYYADSVKGRFTISRDNAKNTVYLQMNSLKPEDTAVYYCNARPTTYNYDYWGQGTQVTVSS | high polyreactivity
15 | QVQLVESGGGLVQAGGSLRLSCAASGSIFGGYTMGWYRQAPGKERELVAAISRRGGNTYYADSVKGRFTISRDYAKNTVYLQMNSLKPDDTAVYFCAKRYASTSGYWGQGTQVTVSS | high polyreactivity
16 | QVQLVESGGGLVQAGGSLRLSCAASGSIFGHNTMGWYRQAPVKERELVAAISSGSRTNSADTVKGRFTISRDNAKNTVYLQMKSLKPEDTAVDYCATKVYSSRYRGYGYWGQGPQVTVSS | high polyreactivity
17 | QVQLVESGGGLVQAGGSLRLSCAASGSIFGINAMGWYRQAPGKERELVAAITNSGANTYYADSVKGRFTISRDNAKNTVYLQMNSLKPEDTAVYYCATDFIGVIYDYWGQGTQVTVSS | low polyreactivity
18 | QVQLVESGGGLVQAGGSLRLSCAASGSIFGINAMGWYRQAPWKERELVAAITSDGSTYYADSVKGRFTISRDNAKNTVYLQMNSLNPEDTAVYYCAAYSWYYTSRYDYWGQGTQVTVSS | low polyreactivity
19 | QVQLVESGGGLVQAGGSLRLSCAASGSIFGINGMGWYRQAPGKERELVAAISDSGGSTYYADSVKGRFTISRDNAKNTVYLQMNSLKPEDTAVYYCAAETYWYFAQFYDLYSYDYWGQGTQVTVSS | low polyreactivity
20 | QVQLVESGGGLVQAGGSLRLSCAASGSIFGIYAMGWYRQAPGKERELVAAISSRAGSTNYADSVKGRFTISRDNAKNTVYLKMNSLKPEDTAVYDCNAKFSPPRRWPLRDYWGQGTQVTVSS | high polyreactivity
21 | QVQLVESGGGLVQAGGSLRLSCAASGSIFGKYAMGWYRQAPGKERELVAAISERTGRTYYADSVKGRFTISRDNAKNTVYLQMNSLKPEDTAVYYCNVGPLYSGWSTYGYDYWGQGTQVTVSS | high polyreactivity
22 | QVQLVESGGGLVQAGGSLRLSCAASGSIFGKYAMGWYRQAPGKERELVAAISGRGGGTYYADSVKGRFTISRDNAKNTVYLQMNSLKPEDTAVYYCNAYYSRLRYDYWGQGTQVTVSS | high polyreactivity
23 | QVQLVESGGGLVQAGGSLRLSCAASGSIFGLNAMGWYRQAPGKERELVARISTGSSTNYADSVKGRFTISRDNAKNTVYLQMNSLKPEDTAVYYCAADVDGGRHYGYWGQGTQVTVSS | low polyreactivity
24 | QVQLVESGGGLVQAGGSLRLSCAASGSIFGLNDMGWYRQAPGKERELVAGISSGGSTYYADSVKGRFTISRDNAKNTVYLQMNSLKPEDTAVYYCATEGRWPNASYGDYDYWGQGTQVTVSS | low polyreactivity
25 | QVQLVESGGGLVQAGGSLRLSCAASGSIFGLYAMGWYRQAPGKERELVAAISASGGSTYYADSVKGRFTISRDNAKNTVYLQMNSLKPEDTAVYYCAKKQRYYGRMDYWGQGTQVTVSS | high polyreactivity
26 | QVQLVESGGGLVQAGGSLRLSCAASGSIFGLYTMGWYRQAPGKERELVAAISSVGSTYYADSVKGRFTISRDNAKNTVYLQMNSLKPEDTAVYYCNVYSRTHYQTYTDDYWGQGTQVTVSS | high polyreactivity
27 | QVQLVESGGGLVQAGGSLRLSCAASGSIFGNAMGWYRQAPGKEREFVAAISSSGSSTYYADSVKGRFTISRDNAKNTVYLQMNSLKPEDTAVYYCAKRRRSAAPKYDYWGQGTQVTVSS | high polyreactivity
28 | QVQLVESGGGLVQAGGSLRLSCAASGSIFGPSAMGWYIQAPGKERDLVAGITRSVGSTYYADSVKGRFTISRDNAKNTVYLQMNSLKPEDTADYYCNAKWLYSRWAGYDYWGQGTQVTVSS | low polyreactivity
29 | QVQLVESGGGLVQAGGSLRLSCAASGSIFGPYAMGWYRPAPGKEREFVAAISGSGGSTYYEDSVKGRFTISRDNAKNTVYLQKNSLTPEDTAVYYCAARQAYVNRGRFRGATLDYWGQGTQVTVSS | high polyreactivity
30 | QVQLVESGGGLVQAGGSLRLSCAASGSIFGPYAMGWYRQAPGKERELVAAISLGGGSTSYADSVKGRFTISRDNAKNTVYLQMNSLKPEDTAVYYCATEDFRTDTGMYYWGQGTQVTVSS | low polyreactivity
